A short description of this series: label from the status in PepcDB records.
Regarding “MVFTLADSVSQVALGPSWLDPMELLSGSGPFGSFILPAMLAIVFIESGLLFPLLPGDSLLFTGGLLANQADPFAPLWLVLILCPIAAILGDQVGYWIGHKFHPRLVNRPDGRIFKQEYLKQTEDFFEKHGPVTIILCRFVPIVRTYAPLVAGMAGMRYRTFIIYNMIGGILWGSGVVALGAALGQFDFVRNNIDLIFLLIVFISVVPGLVGMARKLADGHKQANTEPQENPAVQTAPVKTQEAQEAPQN”, the protein production result is “failed”. Next, “MVGAIARWASLKIVMNPRQLTKTMNIQFLGNITTAILLAVVLQITLWPSAAQACTRILWNNNKLAVVVGRTMDWPESTEPELMVFPQGIKRNGGMLGDMLVVKDNPAQWTSKYGSVVTTVYGMGTVDGLNEKGLGMHMLYLTATDFGPRNPKKAGVQAGLWGQYLLDNAATVKEALALMNEIQPVMVALDDMKATVHLAIEDASGDSAILEYVEGKLVVHHGPEYRVMTNDPTYDQQLKFLETWDFTNATRQTPLPGNVDPKDRFVRASYYQMMLPEPKTEQEAIAGILAIARNTSVPFGAPNNIPGSLYNTEYRTAIDLTNRRYFFELTTSPNVIWVNLDQLNLAPGAPVLSLDPDNLDLSGNVTDKFTKVLKSPF”: “failed”. For “MVGIRKRKDFFEDFGSELFDNLEEMIEALLEEMGDSVPFVYGFSIIHRPGEDPELREFGNVPEYPQQEENFFPSETKEPLIDIFENENMVHVLAEFPEIEKEDILLHATGQHLEIKVLGLSEYTEDVDLPVRVDPKSAKASYKNGVLEVTFRRCSEESPVEIEINLEHHHHHH”, the protein production result is recorded as “not failed”. Consider “MVGIRKRKDFFEEFGSELFDNLEEMIEALLEDMGESVPFVYGFSIIRRPGEDPELREFGNISENSEDEENPFPSEIRDPLIDIFESEELIHVLAEIPEIEKEDLLLHATAQNLEIRILGASEYSQDIELPARVDPKSAKASYKNGVLEVTFKRCTEEMPVEIEIN”, for which the protein production entry was “failed”.

For “MVHASQLNSYSLAILKLCLFILDFVLLCFFLMLTDEEIDSDSELDEYMEQQIAALPQNEINPEEDDESDSDEMGLDEDDDSSDEEDVEAEAPLKVAPPSKKMPNGAFEIAKGGKKNKSSGGKKRCPFPCGPSCKK”, the protein production entry was “failed”. As for “MVIFIMKKRYICILPYSLSYGGVFIDCKEVIANYWNFRSSTYKNGINGFDEEERAVWKQIFENSLASGKRLKVLDVGTGTGFLALLFAEMGHEVSGIDLSEGMLEKARHNADNMGLEISLFHGDAENLPFEDCSFDLVVNKYLLWTLQEPASAVREWKRVLKPGGMIFAIDGNWFDPRPDRYIKRMLYGLAERFAKKNQYNLIFKKSYGPIRNSLPLYEKISPKNISFLFSETGLMNTEISPLLEVQKFQRNRHSFSRRIFENNSIFLISGQKNLEHHHHHH”, the protein production entry is listed as “failed”. For “MVIIDWSLSVDRTIPKPLRIILRGVGQVFFCCNAVTGLIFLMALYIGGVTAGLAATAGVFSSTIAAHLLGFPEKDIDAGLYGFNGTLVGPCLFLFLENSPQLWLYVVLASILSTIVLAALMRILQPCDIPASTAPFILTCWMFMAAVYAFDSFSRGPLLPTAGIPVEAANISMIPVEIGYMAAAKGISEVMFADSVVVGILFLAGIAIHSLRGAAMALAGAIVGIVIPVLLGMDKSLIEMGLYAFNPVLAMMAVGWAFLKPSGRSMGLAFLAGIFTVICQAGLTGFLTPLGLPVLTFPFVLVMWVFLLAASRSKYWEYLNQGK”, the protein production result is “failed”.

Regarding “MVIIGSKGCAKEILTALKWDNVEETVSLFDNINTDISDAYYDFPIIKSWNELEQHLKTDSKVIIGVGGGQRREVLARKIACLGGVLTTFISQKALVGGYDNTIEPGVVILSGATITCNVSIGQGTFINKSTVISHDVRIGRYCEVSPGAKVLGRAIIGDRTEIGANAVILPDVIVGADCKIGAGAVVTRNIDSHTTVAGVPARSITKSSNNAFKLKSKIRNLLYHIRIADFRKLREYNHYVFGKRKLMFLELLSHSWMYGASFENYYELQFFKKSRTECRQYLTSSLRHELTRQVNDPCEALVLKDKVRFSEVFEDILGRRVMTFDEIKRQMHDPYSISINEVVIKPIKGQAGQGIIFPMQNFTSLRQLHDYVISTVKKPDEYLYEERIIQHSALNKLNPSSLNTLRIVTYYDESINKVDVWSVVLRIGIKARTDNFATGGIAVLVDHRGVVCQPAIIKHPSGERFHIHPVSGEKITGCIIPYYDQAIALAKQAAMRIPKVRSIGWDVAITETGPYMLEGNDNWCMTLFQLPGGEGLRHLANSVCNMFSVYE”, the protein production result was “failed”. As for “MVIIVSMKANGFFDEQSSLKKSKIGLNLVWMFSLGHIFLITLSNVLVQYPFDMMGFHTTWGAFTYPAIFILTDLTTRIATANKARKIIMLSMTPGLILSYLVASYIEAGNNLNESGLSVLHLMPLRIALACFIAYVVGQLLDVAVFQRYRNRPAWWLAPTLSAVAGNFIDTALFFTIAFYHCSNPFLSQNWPEIAMVDVFFKIMISLIAFVPVYGLVLSILGIKTTNKLMV”, the entry is “failed”; as for “MVIRELNNNWQSHAFDGYEVNWTEQQQTVSCLHTLVYPLAQGQGLHVTGISWNSTGSVLACAYGRLDDGDWSTLKSYVCTWNLDRQGLNPQQPSVVVEVPSAVMCLAFHPTQPSHIAGGLYSGEVLVWDMSRPEDPLLWRTGLTDDTHTDPVYQVLWLPEPRHSHRFQVLSAATDGKVLLWRGSGAGQLRLTKGFALAVQQLPRSTKLKKPPRGETEVGVTSVAFSSFDSSLFVLGTEGGFPLKCSLASEVAALTRMPSSVPLRAPVQFTFSPHGGPVYSVSCSPFHRNLFLSAGTDGHVHLYSMLQAQPLTSLQLSHKYLFAVRWSPVRPLVFAAASGEGDVQLFDLQKSSQKPTVSITQTQDGSPVYCLEFNSQQTQLLAAGDAKGMVKVWQLSTAFTEQGPREVEDLDQLEAEITT”, “failed”.

In the case of “MVISLVIVAVTATEIFEIVELPFEKTLSAISVGSLFNFSVAVVSKSGYLGVFGLMALESTFIPVPSEVILPLSGYLVYIHTFTFAAIIADAIVASMVGSFIDYYLGLYIGRPIIVKILGFFYVKEDSLVKAENWIDRWGASSVFFARFIPGIRSLISIPAGMLKMKVWVFALMTFLGSVIWSTILVYIGFKAGPYWSSAVHSFSVILDQIIIDAIFAACLAYIGYFIYLKIKTRTKPSY”, the protein production result is listed as “failed”. As for “MVKDSEFLTLVFQSILDEIDVGLHVVDEHGNTIVYNNKMMQIEDMEKHDVLNKNLMDVFMFSKQQDSTLVQALQEGKTIKNVKQSYFNNKGQEITTINHTYPIVQDGKIRGAVEIAKDVTKLERLIRENMNKKGSTTYTFDSILGTSPAIQDVIENAKRATRTSSSVLLAGETGTGKELFAQSIHNGSDRSGGPFISQNCAALPDSLVESILFGTKKGAFTGAVDQPGLFEQAHGGTLLLDEINSLNLSLQAKLLRALQERKIRRIGSTKDTPIDVRIIATMNEDPIDAIAGERMRKDLYYRLSVVTLIIPPLRERKEDILLLASEFIQKNNHLFQMNVEHISDDVKQFFLSYDWPGNIRELEHMIEGAMNFMTDEQTITASHLPYQYRMKIKPADIPEPETPRHQPAADLKEKMESFEKYVIENVLRKHGHNISKAAQELGISRQSLQYRLKKFSHSSNE”, the entry is “failed”.

Consider “MVKELIEQGANVTGLVRDHVPQSNLYQGEHIKKMNIVRGSLEDLAVIERALGEYEIDTVFHLAAQAIVGVANRNPISTFEANILGTWNILEACRKHPLIKRVIVASSDKAYGDQENLPYDENMPLQGKHPYDVSKSCADLISHTYFHTYGLPVCITRCGNLYGGGDLNFNRIIPQTIQLVLNGEAPEIRSDGTFVRDYFYIEDAVQAYLLLAEKMEENNLAGEAFNFSNEIQLTVLELVEKILKKMNSNLKPKVLNQGSNEIKHQYLSAEKARKLLNWTPAYTIDEGLEKTIEWYTEFFKK”, for which the protein production result is listed as “failed”. As for “MVKHARVRAPELVGRGGWINTGDRELSLAALRGRIVVLDFWTFCCVNCLHALDELRELEERHRDTVVIVGVHSPKFTHEAEHRAVLDAVERYSVEHPVLDDPERVTWRQYAVRAWPTLAVIDPEGYVVAQYTGEGHAHAIQRLVEELEARHAAKGTLRRGDAPYVAPEPEPTTLRFPGKAVSLPSGTFLVSDTTRHQLVELAEDGESPVRRIGSGRRGFTDGPADRAEFSEPQGLALLGDGSVVVADTVNHALRRYEPVTGEVTTLAGTGRQHRPGEPSRGAARAVSLSSPWDVALWNDRVWIAMAGVHQLWAYDPRDGSVTVTAGTGNEGLVDGPGPEAWFAQPSGLSATDDRLWVADSETSALRWVELDGTVRTAVGTGLFDFGHRDGPAARALLQHPLGVAALPDGSVVVADTYNHALRRYAPPTGEVSTLATDLREPSDAVVVGGDVLVVESARHRLTRLRLPHDALGTGSGEAVLRGTTEAAPGTLRLEVAFRALAGQKLDQRYGPATRLLVSATPPELLRAGEGAGTELSRSLDLDPSVPEGMLHVSATAASCDDDLDVPYPACHVHQKDWKIPVRLVEGASDRLPLVLTGVDTA”, the entry is “failed”; as for “MVKHLQVRGRLYYRSLAHGLRLTMRRLLFCFLLVLTSLTAIAAEPARPKVGLVLSGGAARGLAHIGVLKALEEQGVRIDAIAGTSMGAVVGGLYASGYSVEELEKLATTLDWQQALSDAPPREDVPFRRKQDDRDFLVKQKLSFRDDGSLGLPLGVIQGQNLSLLLESKLAHTADTRDFDKLPIPFRAVATDIASGEKVVFRRGHLPQVIRASMSIPAVFAPVELDGRLLVDGGMVDNIPVDVAREMGVDLAIVVDIGTPLRDRKQLLTVVDVLNQSITLMTRRNSEEQLASLHRDDILIQPSLTAFGVTDFGRARHMIDAGYRATRLLDPRLAALRQLEGDASLAVARSPRQRTPVITAIRIENDSKVSDDVIRSYIRQPIDAPLELDRLQTDMGTLYGLDYFDRVQYRVVHKGNDHTLVINARGRRGGTDYLRLGLNLSDDLRGDSAFNLGASYRVNGINSLGAEWLTRGQIGDQQALYSEFYQPLDVGSRYFIAPYLDLGSQNIEATLDNDPVAEYRLERYGFGLNVGRQIGNSGEVRLGVGKAWGEAEVRIGDQDLPKVSFNEGFYELKYSFDTLDNVYFPHHGEDIGLTLRKYDKSLDSDQDYRQWLFTLDKAISSGPNTFVLGGSYGRTLDDTEVVTSSFVMGGARQLSGFREDSVSGQNASLLRMVYYRRLTPRAYVPLDFPLYIGGSLERGRAWNNDNEFDSGYINAASIFLGLDTPLGPLNFSYGANSAHEQAVYLNLGHTF”, “failed”; as for “MVKHQQTPAYIAAILYSFIIGLSFLFVKIALQTAEPFDILAHRFTIAFAAATVPILFGWVKLSILVKDVIDILPLALLYPALFFSFQAFGLVYSSSSEAGIIQAAIPIFTMVFAAYVLKERPTWTQKGFTVLSVAGVMFIFVMKGVDVESASLKGSLLILLSALSSAMYNTAARKMTQRFKLTELTYIMSAIGFVVFNAIALVRHGAAGTVGTYFLPFREPGFVLAIVYLGVLSSLVTSFLSNYTLSRIEAFKMSAFNHVSTIVTMIAGFVILNESLAWYHLAGAVCIMIGVVGSNINLEKKTKRPGMPAKK”, “failed”. As for “MVKNGQSKRQPWVKNLYSNREYPDNYTDASFLKDLRTNLHCRIYTFGEAIAGITVLNNQISCITGFLILYQLMLSDSVSPTTILVPSCGITGIGYLCYRGRSLSWALLGEDSKTLVTVVLFGYLFSPMLHTLTQAISTDTIYTMTFFVLLGNLIFGHYGLDVAMVSKVGNIYGYWSQAVSLNAAIFGAICLASRLPTSYHAFVLLVEAAVFFVLYPIMTEANWHAGFMLPIFAICCMALYCISRPVLYLYASTTIFINFVCPFIFVWQQQYKFNIHGPWDEAIVEENTEENLDGNL”, the entry is “failed”; as for “MVKVIFFDLDDTLVDTSKLAEIARKNAIENMIRHGLPVDFETAYSELIELIKEYGSNFPYHFDYLLRRLDLPYNPKWISAGVIAYHNTKFAYLREVPGARKVLIRLKELGYELGIITDGNPVKQWEKILRLELDDFFEHVIISDFEGVKKPHPKIFKKALKAFNVKPEEALMVGDRLYSDIYGAKRVGMKTVWFRYGKHSERELEYRKYADYEIDNLESLLEVLARESSSNKKVHPPRQQI”, “not failed”; as for “MVKVTYDGVYVLSVKDDVPAADVLHAGDLITEIDGNAFKSSQEFIDYIHSKKVGDTVKINYKHGDKNEQADIKLTAIDKKGTPGIGITLVDDLEHHHHHH”, “not failed”.

These data come from a protein production outcome set (Wang et al. 2014).
